Data from publication PMC6780499, “Characterization, Recombinant Production and Structure-Function Analysis of NvCI, A Picomolar Metallocarboxypeptidase Inhibitor from the Marine Snail Nerita versicolor” (Marine Drugs, 2019).
No end group written: not given here.

Tests used:
hCPA4 = molecular target: T1, hCPA4 (Homo sapiens, UniProt Q9UI42); assay: Ki determination, tight-binding inhibition of metallocarboxypeptidase; format: biochemical; details: tight-binding equation fit, equilibrium conditions; substrate AAFP 0.1mM, 20mM Tris-HCl pH 7.5, 500mM NaCl; preincubation 15 min; 37 °C; means (n = 3) ± SD
T1 sequence (Q9UI42 114-421): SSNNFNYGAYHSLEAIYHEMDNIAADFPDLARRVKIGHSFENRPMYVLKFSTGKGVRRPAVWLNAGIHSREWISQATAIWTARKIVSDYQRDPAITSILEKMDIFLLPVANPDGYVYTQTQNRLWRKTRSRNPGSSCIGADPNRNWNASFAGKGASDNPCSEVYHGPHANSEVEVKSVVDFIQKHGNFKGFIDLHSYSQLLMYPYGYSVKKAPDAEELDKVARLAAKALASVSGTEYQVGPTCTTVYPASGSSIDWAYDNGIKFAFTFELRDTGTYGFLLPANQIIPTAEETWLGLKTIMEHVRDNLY
Description: (§1) Inhibitory activities against CPA- and CPB-type forms (bovine and human variants of CPA1, CPA2, CPA4, CPB1, and TAFI) were assayed for all extracts, subject to the experimental conditions that enzyme (E), substrate (S) and inhibitor (I) concentrations as well as the [I]/[E] ratio and preincubation time followed the requirements for tight-binding inhibitor assays. Similar approaches were followed to measure the activities of proteases of different catalytic types, like pepsin, papain, trypsin and subtilisin [45, 46, 47, 48]. All assays were performed in triplicate at 25 °C in a multiplexed manner. For 96-well assays an iEMS spectrophotometer reader/dispenser FM (Labsystems, Finland) was used with a final reaction volume of 250 μL. For cuvette assays, a Cary 400 Bio spectrophotometer (Varian Inc., Palo Alto, CA, USA) spectrophotometer was used with a final reaction volume of 1 ml. The reactions were followed at 5 s intervals for 5 min and recorded as initial velocities. In the protease inhibition assays, mixtures of activity buffer, biological sample and enzyme were preincubated at 25 °C for 10min, before substrate addition. The assay conditions were as follows: for CPA-like enzymes, 7.0nM CPA, 0.1mM AAFP substrate in 20mM Tris-HCl pH 7.5, 500mMNaCl, 1% v/v dimethyl sulfoxide (DMSO), 0.05% w/v BRIJ-35 was used. For CPB-like enzymes, CPB 3.0nM CPB, 0.1mM AAFA substrate and activity buffer of 20 mM Tris-HCl pH [50].
(§2) The Ki values of natural and recombinant NvCI against bCPA1, hCPA1, hCPA2, rat CPA3, hCPA4, hCPB1, bTAFI, hTAFI, hCPD and hCPZ were determined by measuring the enzymatic residual activity (Vi/V0 = a) at different inhibitor concentrations and using a fixed enzyme and substrate concentrations as described above, where vi and v0 are the fraction of enzymatic activity in the presence and absence of inhibitor, respectively, in terms of initial velocities. The determination of Ki values was carried out on equilibrium conditions ([E0]/Ki ≤ 10), using a previously determined preincubation time of 15 min, required to establish enzyme-inhibitor equilibrium. Working temperature was 37 °C. The best estimates of Ki values were obtained by fitting the experimental data to the equation for tight-binding inhibitors by non-linear regression using the GraphPad Prisma 5 software (GraphPad Software, Inc., San Diego, CA, USA) at p < 0.05. The real Ki values against each of these A/B-type MCPs were calculated according to the equation described by Morrison and Copeland [19, 20].

hCPA1 = molecular target: T2, hCPA1 (Homo sapiens, UniProt P15085); assay: as above; format: biochemical; details: tight-binding equation fit, equilibrium conditions; substrate AAFP 0.1mM, 20mM Tris-HCl pH 7.5, 500mM NaCl; preincubation 15 min; 37 °C; means (n = 3) ± SD
T2 sequence (P15085 111-419): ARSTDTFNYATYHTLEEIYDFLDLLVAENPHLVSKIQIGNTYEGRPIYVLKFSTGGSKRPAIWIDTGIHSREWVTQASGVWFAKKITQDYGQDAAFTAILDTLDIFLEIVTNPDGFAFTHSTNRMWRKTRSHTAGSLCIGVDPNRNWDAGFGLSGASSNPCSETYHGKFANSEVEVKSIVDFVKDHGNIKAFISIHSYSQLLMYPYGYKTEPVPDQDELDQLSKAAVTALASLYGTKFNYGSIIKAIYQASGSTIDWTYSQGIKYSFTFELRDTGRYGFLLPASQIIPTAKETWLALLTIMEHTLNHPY
Description: as §1, §2

hCPA2 = molecular target: T3, hCPA2 (Homo sapiens, UniProt P48052); assay: as above; format: biochemical; details: tight-binding equation fit, equilibrium conditions; substrate AAFP 0.1mM, 20mM Tris-HCl pH 7.5, 500mM NaCl; preincubation 15 min; 37 °C; means (n = 3) ± SD
T3 sequence (P48052 115-419): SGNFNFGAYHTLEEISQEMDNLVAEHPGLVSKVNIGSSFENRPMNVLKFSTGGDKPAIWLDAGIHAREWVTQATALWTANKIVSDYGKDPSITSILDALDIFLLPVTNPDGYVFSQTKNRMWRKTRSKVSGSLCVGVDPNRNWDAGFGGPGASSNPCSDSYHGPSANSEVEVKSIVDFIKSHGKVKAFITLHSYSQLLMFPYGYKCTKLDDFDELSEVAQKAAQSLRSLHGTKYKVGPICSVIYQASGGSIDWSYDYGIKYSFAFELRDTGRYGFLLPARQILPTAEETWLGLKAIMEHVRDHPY
Description: as §1, §2

hCPD = molecular target: T4, hCPD (Homo sapiens (Human), UniProt O75976); assay: Ki, residual activity
T4 chain: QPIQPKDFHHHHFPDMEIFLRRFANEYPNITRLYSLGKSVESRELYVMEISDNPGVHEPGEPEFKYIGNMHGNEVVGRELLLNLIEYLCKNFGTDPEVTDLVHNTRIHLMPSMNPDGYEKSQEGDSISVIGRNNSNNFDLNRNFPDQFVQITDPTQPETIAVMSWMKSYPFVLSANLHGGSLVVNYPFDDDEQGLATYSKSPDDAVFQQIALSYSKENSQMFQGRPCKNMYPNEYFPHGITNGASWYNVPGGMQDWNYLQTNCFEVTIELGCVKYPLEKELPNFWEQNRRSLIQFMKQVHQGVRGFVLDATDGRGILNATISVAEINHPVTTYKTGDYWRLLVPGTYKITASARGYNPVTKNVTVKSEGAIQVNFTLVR

hCPZ = molecular target: T5, hCPZ (Homo sapiens (Human), UniProt Q66K79); assay: Ki, residual activity
T5 chain: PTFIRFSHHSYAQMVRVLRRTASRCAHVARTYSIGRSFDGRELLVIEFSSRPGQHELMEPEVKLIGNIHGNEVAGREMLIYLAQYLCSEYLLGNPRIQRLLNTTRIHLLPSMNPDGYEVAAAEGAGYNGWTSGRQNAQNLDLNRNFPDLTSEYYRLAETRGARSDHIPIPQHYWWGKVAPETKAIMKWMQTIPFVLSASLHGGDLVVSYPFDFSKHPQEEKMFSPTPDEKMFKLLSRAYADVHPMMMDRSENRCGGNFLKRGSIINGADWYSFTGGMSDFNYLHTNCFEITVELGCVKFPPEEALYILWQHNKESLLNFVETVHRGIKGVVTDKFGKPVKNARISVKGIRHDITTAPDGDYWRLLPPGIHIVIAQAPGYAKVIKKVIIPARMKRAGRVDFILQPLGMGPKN

NvCI: 53-residue, three-disulphide proteinaceous metallocarboxypeptidase inhibitor from the marine snail Nerita versicolor; major isoform; UniProt P86912 (FHVPDDRPCINPGRCPLVPDATCTFVCKAADNDFGYECQHVWTFEGQRVGCYA; disulfide (positions not given here); also: three disulphides, pairing not given here; UniProt P86912 1-53, looked up)
Ki (hCPA4): 0.0097 ± 0.001 nM
Ki (hCPA1): 0.0018 ± 0.0002 nM
Ki (hCPA2): 6.51 ± 0.0686 nM

B1: NvCI (protein)
chain: FHVPDDRPCINPGRCPLVPDATCTFVCKAADNDFGYECQHVWTFEGQRVGCYA
modifications: disulfide (positions not given here); not fully specified (bridges); ends not checked
Kd (hCPD): > 1000 nM
Kd (hCPZ): > 1000 nM
